Data reported in article PMC3961393, “Progranulin-Derived Atsttrin Directly Binds to TNFRSF25 (DR3) and Inhibits TNF-Like Ligand 1A (TL1A) Activity” (PLoS ONE, 2014).

Key:
[1] = molecular target: T1, Recombinant hPGRN (human, UniProt P28799 18-593); experiment: ELISA; solid phase binding assay: various dose of Atsttrin or progranulin coated on the plate overnight, biotinylated TNFR2, DR3 or BSA added, detected with avidin-HRP, OD 450 nm; settings: both partners purified
T1 construct: human progranulin, recombinant; also called Progranulin; source: bought: Adipogen (Cat. No. AG-40A-0188)
T1 sequence (looked up): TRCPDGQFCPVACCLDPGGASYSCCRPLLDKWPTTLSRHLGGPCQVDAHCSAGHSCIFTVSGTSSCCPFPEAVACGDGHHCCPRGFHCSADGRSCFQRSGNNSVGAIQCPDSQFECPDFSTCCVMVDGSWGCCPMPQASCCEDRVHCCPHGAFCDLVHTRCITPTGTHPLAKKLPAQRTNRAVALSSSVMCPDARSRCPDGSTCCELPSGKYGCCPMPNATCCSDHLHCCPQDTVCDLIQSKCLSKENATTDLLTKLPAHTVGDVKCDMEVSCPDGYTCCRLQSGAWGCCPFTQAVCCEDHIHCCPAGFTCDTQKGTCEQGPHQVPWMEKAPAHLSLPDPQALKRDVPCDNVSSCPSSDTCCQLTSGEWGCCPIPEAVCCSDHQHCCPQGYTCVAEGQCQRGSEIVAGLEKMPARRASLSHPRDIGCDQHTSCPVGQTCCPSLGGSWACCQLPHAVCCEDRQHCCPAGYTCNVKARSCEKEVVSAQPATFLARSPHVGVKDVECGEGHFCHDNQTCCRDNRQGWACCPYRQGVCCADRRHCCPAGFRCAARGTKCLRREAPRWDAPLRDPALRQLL

[2] = molecular target: T2, Recombinant protein hTL1A (human, UniProt O95150 72-251); experiment: ELISA; solid phase inhibition assay: 100 ng of TNFa or TL1A coated overnight, 100 ng of TNFR2 or DR3 added together with various dose of Atsttrin, bound receptor detected by anti-TNFR2 or anti-DR3 antibody and HRP secondary antibody; settings: both partners purified
T2 construct: human TL1A, recombinant; also called TNF-Like Ligand 1A; source: bought: R&D system (Cat# 1319-TL-010)
T2 sequence (looked up): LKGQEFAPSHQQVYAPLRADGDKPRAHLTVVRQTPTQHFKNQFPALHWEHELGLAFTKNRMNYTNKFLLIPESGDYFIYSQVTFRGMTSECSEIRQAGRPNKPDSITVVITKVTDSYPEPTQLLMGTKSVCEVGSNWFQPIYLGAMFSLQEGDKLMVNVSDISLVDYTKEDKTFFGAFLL

binding result [1]: binds
binding result [2]: binds
B1: recombinant extracellular portion of hDR3 (domain or fragment, human, UniProt Q93038 25-199, looked up)
chain: QGGTRSPRCDCAGDFHKKIGLFCCRGCPAGHYLKAPCTEPCGNSTCLVCPQDTFLAWENHHNSECARCQACDEQASQVALENCSAVADTRCGCKPGWFVECQVSQCVSSSPFYCQPCLDCGALHRHTRLLCSRRDTDCGTCLPGFYEHGDGCVSCPTSTLGSCPERCAAVCGWRQ
modifications: biotinylated (site not stated) in the direct solid phase binding assay; biotin is not mentioned for the inhibition assay
notes: human DR3 (TNFRSF25), recombinant extracellular portion; As I recall, this catalogue item is an Fc chimera; also called DR3 extracellular portion; TNFRSF25; source: bought: R&D system (Cat# 943-D3-050)
